For this series, the target named is endogenous raptor (UniProt Q8N122).
endogenous raptor, sequence (Q8N122 whole entry, looked up): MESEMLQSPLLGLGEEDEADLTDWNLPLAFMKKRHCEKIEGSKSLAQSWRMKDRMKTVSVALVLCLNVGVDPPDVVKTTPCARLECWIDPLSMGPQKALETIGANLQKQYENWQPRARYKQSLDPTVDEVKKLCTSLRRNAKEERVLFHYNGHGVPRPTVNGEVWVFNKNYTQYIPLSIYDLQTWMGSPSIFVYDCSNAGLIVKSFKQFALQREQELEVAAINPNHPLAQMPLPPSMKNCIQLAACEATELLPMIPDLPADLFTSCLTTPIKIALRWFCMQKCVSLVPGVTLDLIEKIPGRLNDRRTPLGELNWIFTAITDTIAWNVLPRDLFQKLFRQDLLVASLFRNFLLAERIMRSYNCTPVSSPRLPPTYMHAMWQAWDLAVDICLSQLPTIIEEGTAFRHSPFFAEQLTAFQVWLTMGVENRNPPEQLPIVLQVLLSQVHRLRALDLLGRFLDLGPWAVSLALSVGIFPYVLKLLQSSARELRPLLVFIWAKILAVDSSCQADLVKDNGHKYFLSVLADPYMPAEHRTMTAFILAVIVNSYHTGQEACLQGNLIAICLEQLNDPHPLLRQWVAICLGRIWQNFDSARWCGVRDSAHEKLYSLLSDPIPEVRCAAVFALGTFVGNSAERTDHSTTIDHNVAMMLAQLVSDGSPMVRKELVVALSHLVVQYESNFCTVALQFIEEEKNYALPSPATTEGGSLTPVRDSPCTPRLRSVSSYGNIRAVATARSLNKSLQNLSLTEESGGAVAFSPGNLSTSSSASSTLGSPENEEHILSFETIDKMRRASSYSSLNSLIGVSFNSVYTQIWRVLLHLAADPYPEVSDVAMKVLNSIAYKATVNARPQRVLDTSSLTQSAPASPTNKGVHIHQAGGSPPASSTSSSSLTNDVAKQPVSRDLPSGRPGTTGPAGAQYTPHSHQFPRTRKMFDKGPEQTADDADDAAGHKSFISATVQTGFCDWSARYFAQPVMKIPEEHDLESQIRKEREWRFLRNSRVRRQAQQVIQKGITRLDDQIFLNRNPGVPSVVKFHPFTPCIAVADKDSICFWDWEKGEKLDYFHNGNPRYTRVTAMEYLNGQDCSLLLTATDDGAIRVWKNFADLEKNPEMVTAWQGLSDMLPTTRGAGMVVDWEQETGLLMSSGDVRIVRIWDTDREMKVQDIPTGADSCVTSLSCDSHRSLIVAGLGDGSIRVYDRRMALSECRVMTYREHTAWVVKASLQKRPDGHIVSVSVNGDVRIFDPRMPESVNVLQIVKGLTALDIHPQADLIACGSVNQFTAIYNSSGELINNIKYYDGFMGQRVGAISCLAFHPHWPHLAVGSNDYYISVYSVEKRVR

Take phospholipase D2, wild type (PLD2^wt): the “exogenous PA-dependent phosphorylation of S6K1 (add-back)” value is “the exogenous PA-dependent phosphorylation of S6K1 was rescued by PLD2^wt and PLD2^K758R, but not by PLD2^F265A and PLD2^E266R”.

The record behind these values is US20100184636.
